From article PMC4481117

Legend:
[1] = target: D100 fragment of fibrinogen (mol. weight 100,000 Da); assay: ELISA; solid-phase binding: wells coated with Dyn A or fibrinogen D100 overnight at 4 °C, 3 % BSA; GST-αMI-domains in 20 mM Tris-HCl pH 7.4, 100 mM NaCl, 1 mM MgCl2, 1 mM CaCl2, 0.05 % Tween 20, 5 % glycerol, 1.5 h at 22 °C; detected with anti-GST mAb
[2] = target: integrin Mac-1 on IC-21 murine macrophages (mouse (endogenous in IC-21)) (UniProt P05555)
[3] = target: integrin Mac-1 (αMβ2, CD11b/CD18) on HEK293 cells (UniProt P11215); assay: inhibition of cell adhesion; calcein-labeled Mac-1-HEK293 cells preincubated with 1 μg/ml NIF, added to wells coated with 2 μM Dyn A; heparin 10 μg/ml on the coated wells where named; adhesion without inhibitors = 100 %

Chain of integrin Mac-1 on IC-21 murine macrophages (mouse (endogenous in IC-21)) (P05555 17-1153, chain 1 of 2): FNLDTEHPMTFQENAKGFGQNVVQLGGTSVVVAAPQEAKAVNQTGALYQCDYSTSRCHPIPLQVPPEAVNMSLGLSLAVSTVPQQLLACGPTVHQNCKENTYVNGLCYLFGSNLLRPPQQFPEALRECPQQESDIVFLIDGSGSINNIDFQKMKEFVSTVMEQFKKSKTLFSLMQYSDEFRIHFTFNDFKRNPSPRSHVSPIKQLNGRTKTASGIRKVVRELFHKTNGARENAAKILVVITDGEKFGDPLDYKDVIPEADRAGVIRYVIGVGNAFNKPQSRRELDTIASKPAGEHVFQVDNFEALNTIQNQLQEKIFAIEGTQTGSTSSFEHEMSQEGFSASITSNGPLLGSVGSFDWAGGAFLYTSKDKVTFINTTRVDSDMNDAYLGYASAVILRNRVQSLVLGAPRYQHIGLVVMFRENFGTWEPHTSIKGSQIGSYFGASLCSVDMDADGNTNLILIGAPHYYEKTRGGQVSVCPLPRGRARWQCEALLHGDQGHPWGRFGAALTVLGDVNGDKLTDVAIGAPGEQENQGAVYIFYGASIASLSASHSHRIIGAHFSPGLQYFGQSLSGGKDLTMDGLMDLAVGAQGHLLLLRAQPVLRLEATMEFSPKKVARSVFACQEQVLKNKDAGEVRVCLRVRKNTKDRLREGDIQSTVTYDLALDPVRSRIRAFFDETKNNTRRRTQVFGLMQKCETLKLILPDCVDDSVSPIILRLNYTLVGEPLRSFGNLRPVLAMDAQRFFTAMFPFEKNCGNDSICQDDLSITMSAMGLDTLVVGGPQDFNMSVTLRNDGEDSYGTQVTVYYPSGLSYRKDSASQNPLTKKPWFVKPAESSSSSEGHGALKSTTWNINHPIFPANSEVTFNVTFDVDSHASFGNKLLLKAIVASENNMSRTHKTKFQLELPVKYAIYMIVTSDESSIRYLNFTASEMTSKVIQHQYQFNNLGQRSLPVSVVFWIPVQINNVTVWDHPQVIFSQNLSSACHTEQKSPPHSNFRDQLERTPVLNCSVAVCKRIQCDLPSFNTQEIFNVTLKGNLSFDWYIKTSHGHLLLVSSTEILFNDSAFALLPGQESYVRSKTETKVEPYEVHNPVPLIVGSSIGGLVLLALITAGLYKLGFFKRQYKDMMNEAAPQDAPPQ
Chain of integrin Mac-1 on IC-21 murine macrophages (mouse (endogenous in IC-21)) (P11835 24-771, chain 2 of 2, further chain): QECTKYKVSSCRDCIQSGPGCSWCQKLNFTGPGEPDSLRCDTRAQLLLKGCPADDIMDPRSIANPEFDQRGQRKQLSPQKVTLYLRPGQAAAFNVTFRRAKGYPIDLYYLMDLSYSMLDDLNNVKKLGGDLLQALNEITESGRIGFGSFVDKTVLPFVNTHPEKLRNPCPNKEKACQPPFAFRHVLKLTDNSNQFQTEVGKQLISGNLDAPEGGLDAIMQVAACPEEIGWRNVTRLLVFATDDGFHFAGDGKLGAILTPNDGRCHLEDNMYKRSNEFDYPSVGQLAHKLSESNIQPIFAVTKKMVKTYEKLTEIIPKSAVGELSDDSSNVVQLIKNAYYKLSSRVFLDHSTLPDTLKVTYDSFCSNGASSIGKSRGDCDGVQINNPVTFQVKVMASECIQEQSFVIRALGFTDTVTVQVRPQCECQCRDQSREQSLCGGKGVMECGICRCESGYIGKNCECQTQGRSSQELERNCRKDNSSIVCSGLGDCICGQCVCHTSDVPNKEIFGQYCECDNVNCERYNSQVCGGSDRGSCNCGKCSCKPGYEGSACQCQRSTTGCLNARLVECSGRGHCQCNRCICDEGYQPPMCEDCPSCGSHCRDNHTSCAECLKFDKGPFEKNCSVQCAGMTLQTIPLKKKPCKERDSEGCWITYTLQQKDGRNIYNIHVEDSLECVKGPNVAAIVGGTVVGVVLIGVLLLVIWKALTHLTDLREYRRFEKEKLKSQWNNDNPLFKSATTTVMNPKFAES

Row | Substance | fold binding over the nonactive αMI-domain [1] | inhibition by NIF (2 μg/ml) of the phagocytosis of Dyn A-coated beads by IC-21 macrophages (blocked pair: Dyn A and Mac-1) [2] | percent inhibition of the adhesion of Mac-1-HEK293 cells to Dyn A (2 μM coating) [3] | percent inhibition of the adhesion of Mac-1-HEK293 cells to Dyn A (2 μM coating), NIF combined with heparin [3]
1 | GST-αMI-domain, active conformation (residues Glu123-Lys315) (from UniProt P11215 139-331) (domain or fragment) | 3.5 fold |  |  | 
2 | Neutrophil inhibitory factor (NIF) (natural protein) |  | 70% | 65% | > 95%
